From patent US5910570A, “Cloned DNA encoding a UDP-GalNAc: polypeptide N-acetylgalactosaminy-ltransferase” (Pharmacia & Upjohn Company, priority 1997, dated 1999)

How the values were obtained:
bovine apomucin = test: Specific activity of the purified enzyme preparation using bovine apomucin as acceptor; assay type: biochemical
Description: The standard assay for UDP-GalNAc:polypeptide, N-acetylgalactosaminyltransferase activity during purification contained the following components in a final volume of 80 μl: 50 mM Imidazole pH 7.2, 10 mM MnCl2, 0.5% Triton X-100, 15 μM UDP-GalNAc, UDP[1-^3 H-]GalNAc (27,000 cpm/assay), 0.15 mg/ml apomucin and varying amounts of enzyme (see individual experiments). The reaction mixture is incubated at 37° C. for 5-10 minutes (see individual experiments) and the reaction product is TCA precipitated and radioactivity measured as described. Assays for activity in lysates from Spodoptera frugiperda cell line 9 (hereinafter referred to as Sf9 cells) are carried out as described by Thomsen et al., (1990).

[1] = biological target: T1, bovine colostrum GalNAc-transferase (Bos taurus, UniProt Q07537); test: Transfer of N-acetylgalactosamine to protein acceptors; assay type: biochemical; details: for Product formed, Native: native acceptor 65 μM; for Product formed, Native / Product formed, Reduced and carboxymethylated: enzyme approx. 65 mU/ml; for Product formed, Reduced and carboxymethylated: reduced and carboxymethylated acceptor 65 μM
T1 construct: from tissue; host or cells: bovine colostrum
T1 sequence (Q07537 41-559 limits assumed): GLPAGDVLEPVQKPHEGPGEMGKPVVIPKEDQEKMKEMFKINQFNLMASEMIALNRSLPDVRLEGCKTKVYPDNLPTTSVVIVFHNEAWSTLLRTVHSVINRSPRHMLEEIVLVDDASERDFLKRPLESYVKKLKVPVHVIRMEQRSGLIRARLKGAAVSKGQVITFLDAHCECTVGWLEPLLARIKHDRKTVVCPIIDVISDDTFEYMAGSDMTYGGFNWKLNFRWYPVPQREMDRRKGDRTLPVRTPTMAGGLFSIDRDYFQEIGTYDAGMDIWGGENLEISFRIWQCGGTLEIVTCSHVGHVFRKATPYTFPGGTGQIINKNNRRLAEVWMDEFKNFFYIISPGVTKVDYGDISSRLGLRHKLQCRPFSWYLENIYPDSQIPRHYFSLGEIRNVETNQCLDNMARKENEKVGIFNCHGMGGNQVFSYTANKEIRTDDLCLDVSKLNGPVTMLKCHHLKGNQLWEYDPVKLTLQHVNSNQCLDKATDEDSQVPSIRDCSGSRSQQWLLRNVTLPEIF
Description: The above conclusions and the predictions of the specificity algorithm are validated experimentally by studying the ability of bovine colostrum GalNAc-transferase to transfer N-acetylgalactosamine to a variety of acceptors, both native proteins and synthetic acceptor peptides. The transfer of N-acetylgalactosamine to protein acceptors is assayed as described by Elhammer and Kornfeld, 1986, with minor modifications. The concentration of UDP-GalNAc is saturating in all assays; a Km of 8 μM is reported for bovine colostrum GalNAc-transferase (Elhammer and Kornfeld, 1986).
The transfer of N-acetylgalactosamine to protein acceptors was assayed
under standard conditions (see Material and Methods). The acceptor
concentration was 65 μM, the enzyme concentration approximately 65
mU/ml and assay time was 60 minutes. The transfer to both native and
reduced-carboxymethylated acceptors was assayed.

B1: GalNAcTs: secreted, soluble recombinant form of bovine GalNAc-transferase expressed in Sf9 cells (protein)
chain: DPSPALEPVQKPHEGPGEMGKPVVIPKEDQEKMKEMFKINQFNLMASEMIALNRSLPDVRLEGCKTKVYPDNLPTTSVVIVFHNEAWSTLLRTVHSVINRSPRHMLEEIVLVDDASERDFLKRPLESYVKKLKVPVHVIRMEQRSGLIRARLKGAAVSKGQVITFLDAHCECTVGWLEPLLARIKHDRKTVVCPIIDVISDDTFEYMAGSDMTYGGFNWKLNFRWYPVPQREMDRRKGDRTLPVRTPTMAGGLFSIDRDYFQEIGTYDAGMDIWGGENLEISFRIWQCGGTLEIVTCSHVGHVFRKATPYTFPGGTGQIINKNNRRLAEVWMDEFKNFFYIISPGVTKVDYGDISSRLGLRHKLQCRPFSWYLENIYPDSQIPRHYFSLGEIRNVETNQCLDNMARKENEKVGIFNCHGMGGNQVFSYTANKEIRTDDLCLDVSKLNGPVTMLKCHHLKGNQLWEYDPVKLTLQHVNSNQCLDKATDEDSQVPSIRDCSGSRSQQWLLRNVTLPEIF
- specific activity of the purified enzyme preparation (bovine apomucin): approximately 2,160 U/mg protein

B2: Subtilisin: bacterial protein tested as acceptor (protein, UniProt P00782 108-382, looked up)
Subtilisin BPN': AQSVPYGVSQIKAPALHSQGYTGSNVKVAVIDSGIDSSHPDLKVAGGASMVPSETNPFQDNNSHGTHVAGTVAALNNSIGVLGVAPSASLYAVKVLGADGSGQYSWIINGIEWAIANNMDVINMSLGGPSGSAALKAAVDKAVASGVVVVAAAGNEGTSGSSSTVGYPGKYPSVIAVGAVDSSNQRASFSSVGPELDVMAPGVSIQSTLPGNKYGAYNGTSMASPHVAGAAALILSKHPNWTNTQVRSSLENTTTKLGDSFYYGKGLINVQAAAQ
- transfer rate, times slower as compared to myelin basic protein ([1]; denatured (reduced and carboxymethylated) acceptor): 35 times
- Product formed, Native ([1]; 60 minutes): < 0.1 nmol/min/mg
- Product formed, Reduced and carboxymethylated ([1]; 60 minutes): 0.6 nmol/min/mg

B3: Bovine rhodanese: cytoplasmic protein with predicted glycosylation sites, tested as acceptor (protein)
chain: VHQVLYRALVSTKWLAESVRAGKVGPGLRVLDASWYSPGTREARKEYLERHVPGASFFDIEECRDKASPYEVMLPSEAGFADYVGSLGISNDTHVVVYDGDDLGSFYAPRVWWMFRVFGHRTVSVLNGGFRNWLKEGHPVTSEPSRPEPAIFKATLNRSLLKTYEQVLENLESKRFQLVDSRAQGRYLGTQPEPDAVGLDSGHIRGSVNMPFMNFLTEDGFEKSPEELRAMFEAKKVDLTKPLIATCRKGVTACHIALAAYLCGKPDVAIYDGSWFEWFHRAPPETWVSQGKGGKA
- Product formed, Native ([1]; 60 minutes): < 0.1 nmol/min/mg
- Product formed, Reduced and carboxymethylated ([1]; 60 minutes): 3.3 nmol/min/mg

B4: Myelin basic protein: efficient acceptor for GalNAc-transferase, included as a positive control (protein, UniProt P02686 1-304, looked up)
Myelin basic protein: MGNHAGKRELNAEKASTNSETNRGESEKKRNLGELSRTTSEDNEVFGEADANQNNGTSSQDTAVTDSKRTADPKNAWQDAHPADPGSRPHLIRLFSRDAPGREDNTFKDRPSESDELQTIQEDSAATSESLDVMASQKRPSQRHGSKYLATASTMDHARHGFLPRHRDTGILDSIGRFFGGDRGAPKRGSGKDSHHPARTAHYGSLPQKSHGRTQDENPVVHFFKNIVTPRTPPPSQGKGRGLSLSRFSWGAEGQRPGFGYGGRASDYKSAHKGFKGVDAQGTLSKIFKLGGRDSRSGSPMARR
- Product formed, column Reduced and carboxymethylated (acceptor not reduced and carboxymethylated in this experiment) ([1]; footnote a: not reduced and carboxymethylated, 65 μM, 60 minutes): 21.3 nmol/min/mg
- Product formed, Native ([1]; 60 minutes): 22.2 nmol/min/mg
